This is an account of results in PMC8002388.

The target in assay [1] is light-activated rhodopsin in rod outer segments (ROS) (UniProt P02699).
For assay [2] the target is unchanged. This is another data set of the same source.

UniProt P02699, sequence (P02699 whole entry): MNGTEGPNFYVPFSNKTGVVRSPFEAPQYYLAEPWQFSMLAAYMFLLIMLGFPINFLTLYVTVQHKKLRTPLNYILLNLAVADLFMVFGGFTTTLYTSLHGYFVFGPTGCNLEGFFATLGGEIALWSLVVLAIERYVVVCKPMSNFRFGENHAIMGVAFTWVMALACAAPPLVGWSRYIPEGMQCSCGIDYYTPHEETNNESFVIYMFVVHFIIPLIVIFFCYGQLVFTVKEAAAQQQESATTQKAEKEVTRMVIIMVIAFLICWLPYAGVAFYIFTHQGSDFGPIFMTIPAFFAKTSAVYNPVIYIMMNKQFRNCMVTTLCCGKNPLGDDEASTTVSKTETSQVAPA

As for “C-terminally H6-tagged bovine GRK2, wild type (S670A background) (from UniProt P21146 1-689) (enzyme)”, in assay [1], the normalized Vmax of rhodopsin (ROS) phosphorylation when [ATP] is varied came to 1.3 A.U. For the same substance, the Km for rhodopsin, phosphorylation of light-activated rhodopsin in ROS (50 nM-5 µM) by 20 nM GRK2 with 150 nM human Gβ1γ2 and 5 µM ATP in assay [2] came out at 0.24 µM.

Substance “C-terminally H6-tagged bovine GRK2 L33N (S670A background) (from UniProt P21146 1-689) (enzyme)” returned a normalized Vmax of rhodopsin (ROS) phosphorylation when [ATP] is varied in assay [1] of 1 A.U. In addition, in assay [2], the Km for rhodopsin, phosphorylation of light-activated rhodopsin in ROS (50 nM-5 µM) by 20 nM GRK2 with 150 nM human Gβ1γ2 and 5 µM ATP was 0.36 µM.

“C-terminally H6-tagged bovine GRK2 L536N (S670A background) (from UniProt P21146 1-689) (enzyme)”: the normalized Vmax of rhodopsin (ROS) phosphorylation when [ATP] is varied in assay [1] was 1.2 A.U. Also, in assay [2], the Km for rhodopsin, phosphorylation of light-activated rhodopsin in ROS (50 nM-5 µM) by 20 nM GRK2 with 150 nM human Gβ1γ2 and 5 µM ATP worked out at 0.18 µM.

In assay [1], “C-terminally H6-tagged bovine GRK2 E532A (S670A background) (from UniProt P21146 1-689) (enzyme)” displayed a normalized Vmax of rhodopsin (ROS) phosphorylation when [ATP] is varied of 0.8 A.U. For the same substance, the Km for rhodopsin, phosphorylation of light-activated rhodopsin in ROS (50 nM-5 µM) by 20 nM GRK2 with 150 nM human Gβ1γ2 and 5 µM ATP in assay [2] was 0.14 µM.

“C-terminally H6-tagged bovine GRK2 E36A (S670A background) (from UniProt P21146 1-689) (enzyme)” gave a normalized Vmax of rhodopsin (ROS) phosphorylation when [ATP] is varied in assay [1] of 0.9 A.U. For the same substance, the Km for rhodopsin, phosphorylation of light-activated rhodopsin in ROS (50 nM-5 µM) by 20 nM GRK2 with 150 nM human Gβ1γ2 and 5 µM ATP in assay [2] came out at 0.13 µM.

Take “C-terminally H6-tagged bovine GRK2 L547N (S670A background) (from UniProt P21146 1-689) (enzyme)”: the normalized Vmax of rhodopsin (ROS) phosphorylation when [ATP] is varied in assay [1] was 0.8 A.U. In assay [2], the Km for rhodopsin, phosphorylation of light-activated rhodopsin in ROS (50 nM-5 µM) by 20 nM GRK2 with 150 nM human Gβ1γ2 and 5 µM ATP was found to be 0.17 µM.
